Data taken from paper doi:10.1101/731679, “Structural insights into the mechanism of the human soluble guanylate cyclase” (bioRxiv, 2019).

T1: cys-less human sGC α1 subunit with L275C (α1^CL L275C), C-terminal GFP-strep (human, UniProt Q02108 64-690, C176A | C239A | C669S | C455Y | C460G | L275C)
T1 construct: soluble guanylate cyclase α1 subunit, human; the cys-rich N-terminal 63 amino acids removed; cys-less background plus L275C; also called α1 L275C; source: HEK293F, transfected (BacMam vector), purified with β1 on Streptactin Beads 4FF; not shown: GFP, C-terminal, kept; strep, C-terminal, kept
T1 sequence (looked up): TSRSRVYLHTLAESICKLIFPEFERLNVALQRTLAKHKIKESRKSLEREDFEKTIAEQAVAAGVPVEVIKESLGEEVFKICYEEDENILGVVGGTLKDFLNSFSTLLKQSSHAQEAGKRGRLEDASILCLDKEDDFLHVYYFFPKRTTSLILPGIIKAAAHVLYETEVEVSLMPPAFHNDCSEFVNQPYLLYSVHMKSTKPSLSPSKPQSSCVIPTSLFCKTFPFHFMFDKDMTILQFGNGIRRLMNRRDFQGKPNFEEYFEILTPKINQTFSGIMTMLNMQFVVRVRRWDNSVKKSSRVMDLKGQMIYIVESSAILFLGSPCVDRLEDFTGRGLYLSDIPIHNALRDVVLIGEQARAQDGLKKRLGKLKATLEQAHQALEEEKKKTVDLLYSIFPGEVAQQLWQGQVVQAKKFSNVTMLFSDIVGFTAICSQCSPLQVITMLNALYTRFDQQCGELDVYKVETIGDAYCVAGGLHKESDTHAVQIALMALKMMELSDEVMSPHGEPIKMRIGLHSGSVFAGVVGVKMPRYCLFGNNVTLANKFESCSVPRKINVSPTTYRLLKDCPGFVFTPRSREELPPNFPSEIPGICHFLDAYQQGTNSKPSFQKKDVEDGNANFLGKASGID

T2: cys-less human sGC α1 subunit with L425C (α1^CL L425C), C-terminal GFP-strep (human, UniProt Q02108 64-690, C176A | C239A | C669S | C455Y | C460G | L425C)
T2 construct: soluble guanylate cyclase α1 subunit, human; the cys-rich N-terminal 63 amino acids removed; cys-less background plus L425C; also called α1 L425C; source: HEK293F, transfected (BacMam vector), purified with β1 on Streptactin Beads 4FF; not shown: GFP, C-terminal, kept; strep, C-terminal, kept
T2 sequence (looked up): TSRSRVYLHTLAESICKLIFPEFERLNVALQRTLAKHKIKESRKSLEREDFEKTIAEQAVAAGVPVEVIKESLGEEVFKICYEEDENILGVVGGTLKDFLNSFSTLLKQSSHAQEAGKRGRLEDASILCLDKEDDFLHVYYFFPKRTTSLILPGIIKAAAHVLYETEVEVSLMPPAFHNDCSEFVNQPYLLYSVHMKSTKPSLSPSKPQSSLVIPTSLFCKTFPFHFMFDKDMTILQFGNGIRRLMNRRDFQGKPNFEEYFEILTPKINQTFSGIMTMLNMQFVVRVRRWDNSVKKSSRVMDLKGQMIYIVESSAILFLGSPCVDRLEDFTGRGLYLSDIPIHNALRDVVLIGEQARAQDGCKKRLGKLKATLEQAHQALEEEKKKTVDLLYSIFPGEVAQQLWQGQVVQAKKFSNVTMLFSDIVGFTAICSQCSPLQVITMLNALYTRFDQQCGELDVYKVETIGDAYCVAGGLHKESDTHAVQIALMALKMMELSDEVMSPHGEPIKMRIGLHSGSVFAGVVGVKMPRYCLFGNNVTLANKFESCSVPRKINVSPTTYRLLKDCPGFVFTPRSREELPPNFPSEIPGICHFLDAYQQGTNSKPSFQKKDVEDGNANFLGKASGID


What was measured:
[1] = molecular target: T1, cys-less human sGC α1 subunit with …; test: cross-linking; disulfide cross-linking of Streptactin-purified cys-less sGC with 0.1 mM Cu(II)(1,10-phenanthroline)3 on ice for 30 min; SDS-PAGE non-reducing or reducing (100 mM DTT); in-gel GFP fluorescence of α1; settings: both partners purified
[2] = molecular target: T2, cys-less human sGC α1 subunit with …; test: as above; settings: both partners purified

| binding result [1] | binding result [2] | Binder |
| --- | --- | --- |
| binds | – | cys-less human sGC β1 subunit with A316C (β1^CL A316C), without tags (natural protein, UniProt Q02153 1-619, looked up, soluble guanylate cyclase β1 subunit, human; cys-less background (C292N) plus A316C; The PDB entries are of the wild-type parent; also called β1 A316C; source: HEK293F, transfected (BacMam vector), purified with α1 on Streptactin Beads 4FF) MYGFVNHALELLVIRNYGPEVWEDIKKEAQLDEEGQFLVRIIYDDSKTYDLVAAASKVLNLNAGEILQMFGKMFFVFCQESGYDTILRVLGSNVREFLQNLDALHDHLATIYPGMRAPSFRCTDAEKGKGLILHYYSEREGLQDIVIGIIKTVAQQIHGTEIDMKVIQQRNEECDHTQFLIEEKESKEEDFYEDLDRFEENGTQESRISPYTFCKAFPFHIIFDRDLVVTQCGNAIYRVLPQLQPGNCSLLSVFSLVRPHIDISFHGILSHINTVFVLRSKEGLLDVEKLENEDELTGTEISCLRLKGQMIYLPECDSILFLCSPSVMNLDDLTRRGLYLSDIPLHDATRDLVLLGEQFREEYKLTQELEILTDRLQLTLRALEDEKKKTDTLLYSVLPPSVANELRHKRPVPAKRYDNVTILFSGIVGFNAFCSKHASGEGAMKIVNLLNDLYTRFDTLTDSRKNPFVYKVETVGDKYMTVSGLPEPCIHHARSICHLALDMMEIAGQVQVDGESVQITIGIHTGEVVTGVIGQRMPRYCLFGNTVNLTSRTETTGEKGKINVSEYTYRCLMSPENSDPQFHLEHRGPVSMKGKKEPMQVWFLSRKNTGTEETKQDDD |
| – | binds | cys-less human sGC β1 subunit with L365C (β1^CL L365C), without tags (natural protein, UniProt Q02153 1-619, looked up, soluble guanylate cyclase β1 subunit, human; cys-less background (C292N) plus L365C; The PDB entries are of the wild-type parent; also called β1 L365C; source: HEK293F, transfected (BacMam vector), purified with α1 on Streptactin Beads 4FF) MYGFVNHALELLVIRNYGPEVWEDIKKEAQLDEEGQFLVRIIYDDSKTYDLVAAASKVLNLNAGEILQMFGKMFFVFCQESGYDTILRVLGSNVREFLQNLDALHDHLATIYPGMRAPSFRCTDAEKGKGLILHYYSEREGLQDIVIGIIKTVAQQIHGTEIDMKVIQQRNEECDHTQFLIEEKESKEEDFYEDLDRFEENGTQESRISPYTFCKAFPFHIIFDRDLVVTQCGNAIYRVLPQLQPGNCSLLSVFSLVRPHIDISFHGILSHINTVFVLRSKEGLLDVEKLENEDELTGTEISCLRLKGQMIYLPEADSILFLCSPSVMNLDDLTRRGLYLSDIPLHDATRDLVLLGEQFREEYKCTQELEILTDRLQLTLRALEDEKKKTDTLLYSVLPPSVANELRHKRPVPAKRYDNVTILFSGIVGFNAFCSKHASGEGAMKIVNLLNDLYTRFDTLTDSRKNPFVYKVETVGDKYMTVSGLPEPCIHHARSICHLALDMMEIAGQVQVDGESVQITIGIHTGEVVTGVIGQRMPRYCLFGNTVNLTSRTETTGEKGKINVSEYTYRCLMSPENSDPQFHLEHRGPVSMKGKKEPMQVWFLSRKNTGTEETKQDDD |
